Laboratory results as given in the supplement of paper PMC10598134.
± gives the standard deviation.

Assay: collision cross section of modified peptide (TIMS, N2, iRT-aligned); higher = larger / more extended gas-phase ion
How it was run: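 Synthetic peptide pools (~100 fmol/µL in 2% acetonitrile/0.1% formic acid, iRT standard spiked 1:40) were separated on a 120-min nanoflow C18 gradient at 60 °C. They were analysed on a timsTOF Pro/HT (dda-PASEF, nitrogen, ~2.4 mbar) and identified with MaxQuant. 1/K0 was calibrated with three reference ions and aligned run-wise to the median iRT peptide deviation. Collision cross section came from the Mason-Schamp equation, averaging 1–3 technical replicates of the most abundant feature per charge state.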

[1] = charge state: 2, modification: Crotonyl
[2] = charge state: 3, modification: Crotonyl
[3] = charge state: 2, modification: Succinyl
[4] = charge state: 3, modification: Succinyl
[5] = charge state: 3, modification: hydroxyisobutyryl
[6] = charge state: 2, modification: GlyGly (K)
[7] = charge state: 3, modification: GlyGly (K)
[8] = charge state: 2, modification: Formyl
[9] = charge state: 3, modification: Formyl
[10] = charge state: 2, modification: Biotin
[11] = charge state: 2, modification: Nitro (Y)
[12] = charge state: 2, modification: Malonyl
[13] = charge state: 3, modification: Malonyl
[14] = charge state: 2, modification: Propionyl
[15] = charge state: 3, modification: HexNAc (ST)
[16] = charge state: 2, modification: Butyryl
[17] = charge state: 2, modification: Citrullination (R)
[18] = charge state: 2, modification: Phospho (Y)
[19] = charge state: 2, modification: hydroxyisobutyryl
[20] = charge state: 3, modification: Citrullination (R)
[21] = charge state: 3, modification: Biotin
[22] = charge state: 2, modification: HexNAc (ST)
[23] = charge state: 3, modification: Butyryl
[24] = charge state: 2, modification: Dimethyl (K)
[25] = charge state: 3, modification: Dimethyl (K)
[26] = charge state: 2, modification: Acetyl (K)
[27] = charge state: 3, modification: Acetyl (K)

Sequence: GFALVGVGSEASSKK [_GFALVGVGSEASSK(Crotonyl)K_]
- collision cross section [1]: 448.38 ± 0.94 Å²
- collision cross section [2]: 499.08 ± 1.9 Å²

Sequence: LGPPGNPGPSGSPGPKGQK [_LGPPGNPGPSGSP(Hydroxyproline)GPKGQK_]
- collision cross section (charge state: 2, modification: Hydroxyproline): 423.7 ± 3 Å²

Sequence: IVFSGNLFQHQEDSKK [_IVFSGNLFQHQEDSK(Succinyl)K_]
- collision cross section [3]: 493.41 ± 1 Å²
- collision cross section [4]: 524.55 ± 2 Å²

Sequence: YEQEHAAIQDKLFQVAK [_YEQEHAAIQDK(hydroxyisobutyryl)LFQVAK_]
- collision cross section [5]: 519.87 ± 2 Å²

Sequence: TPNLYIYSKK [_TPNLYIYSK(Succinyl)K_]
- collision cross section [3]: 387.96 ± 0.52 Å²

Sequence: DYSSGFGGKYGVQADR [_DYSSGFGGK(GlyGly (K))YGVQADR_]
- collision cross section [6]: 440.03 ± 1.4 Å²
- collision cross section [7]: 489.79 ± 1.3 Å²

Sequence: SITHSTVGSKGEK [_SITHSTVGSK(Formyl)GEK_]
- collision cross section [8]: 387.87 ± 1.4 Å²
- collision cross section [9]: 435.39 ± 3 Å²

Sequence: SLKLNTAEDAK [_SLK(Biotin)LNTAEDAK_]
- collision cross section [10]: 397.96 Å²

Sequence: GDYDLNAVR [_GDY(Nitro (Y))DLNAVR_]
- collision cross section [11]: 344.3 ± 0.72 Å²

Sequence: GEVGAGAGPGAQAGPSAKR [_GEVGAGAGPGAQAGPSAK(Malonyl)R_]
- collision cross section [12]: 415.94 ± 0.58 Å²
- collision cross section [13]: 468.8 ± 1.8 Å²

Sequence: AIQLNPSYIR [_AIQLNPSY(Nitro (Y))IR_]
- collision cross section [11]: 380.21 ± 0.17 Å²

Sequence: IQTKAGEATVK [_IQTK(Propionyl)AGEATVK_]
- collision cross section [14]: 369.17 ± 0.33 Å²

Sequence: LEQVEKELLR [_LEQVEK(GlyGly (K))ELLR_]
- collision cross section [6]: 394.68 ± 0.37 Å²
- collision cross section [7]: 460.7 ± 1.1 Å²

Sequence: VGEFSGANKEK [_VGEFSGANK(Biotin)EK_]
- collision cross section [10]: 386.08 Å²

Sequence: ELANFDPSRPGPPSGR [_ELANFDPS(HexNAc (ST))RPGPPSGR_]
- collision cross section [15]: 503.12 ± 0.18 Å²

Sequence: TTEETSKPK [_TTEETSK(Butyryl)PK_]
- collision cross section [16]: 338.9 ± 1.2 Å²

Sequence: ILDLKTGTVK [_ILDLK(Crotonyl)TGTVK_]
- collision cross section [1]: 360.69 ± 0.88 Å²

Sequence: LDHLAEKFR [_LDHLAEK(Formyl)FR_]
- collision cross section [8]: 364.92 ± 0.89 Å²
- collision cross section [9]: 435.6 ± 2.1 Å²

Sequence: LQLEIDQKK [_LQLEIDQK(Biotin)K_]
- collision cross section [10]: 382.89 ± 0.23 Å²

Sequence: GRGAPPPPPSR [_GR(Citrullination (R))GAPPPPPSR_]
- collision cross section [17]: 339.21 ± 1.2 Å²

Sequence: KFGVLSDNFK [_K(Propionyl)FGVLSDNFK_]
- collision cross section [14]: 374.07 ± 0.33 Å²

Sequence: DYSSGFGGKYGVQADR [_DYSSGFGGK(Trimethyl (K))YGVQADR_]
- collision cross section (charge state: 2, modification: Trimethyl (K)): 437.78 ± 0.016 Å²
- collision cross section (charge state: 3, modification: Trimethyl (K)): 486.86 ± 1.8 Å²

Sequence: SEASSEFAKK [_SEASSEFAK(Malonyl)K_]
- collision cross section [12]: 350.91 ± 0.74 Å²

Sequence: DYVSQFEGSALGK [_DY(Phospho (Y))VSQFEGSALGK_]
- collision cross section [18]: 391.59 ± 0.64 Å²

Sequence: LSITGTYDLK [_LSITGTY(Phospho (Y))DLK_]
- collision cross section [18]: 381.43 ± 0.65 Å²

Sequence: LQDVSGQLSSSKK [_LQDVSGQLSSSK(Succinyl)K_]
- collision cross section [3]: 402.37 ± 0.79 Å²
- collision cross section [4]: 468.7 ± 14 Å²

Sequence: LGVATVAKGVCGACK [_LGVATVAK(hydroxyisobutyryl)GVCGACK_]
- collision cross section [19]: 419.46 ± 1.2 Å²

Sequence: GSYLGGYSAGRGIYSR [_GSYLGGYSAGR(Citrullination (R))GIYSR_]
- collision cross section [17]: 429.9 ± 0.2 Å²
- collision cross section [20]: 475.97 ± 0.76 Å²

Sequence: VGVEVPDVNIEGPEGKLK [_VGVEVPDVNIEGPEGK(GlyGly (K))LK_]
- collision cross section [6]: 464.33 ± 1.3 Å²
- collision cross section [7]: 509.72 ± 1.9 Å²

Sequence: DDSNLYINVK [_DDSNLY(Phospho (Y))INVK_]
- collision cross section [18]: 368.08 ± 0.064 Å²

Sequence: DHLSDKESK [_DHLSDK(Biotin)ESK_]
- collision cross section [10]: 368.95 Å²
- collision cross section [21]: 429.55 Å²

Sequence: MFLSFPTTK [_MFLS(HexNAc (ST))FPTTK_]
- collision cross section [22]: 373.63 ± 0.17 Å²

Sequence: ANEKTESSSAQQVAVSR [_ANEK(Butyryl)TESSSAQQVAVSR_]
- collision cross section [16]: 441.41 ± 1.7 Å²
- collision cross section [23]: 534.65 ± 3.5 Å²

Sequence: PRGVISTPVIR [_PR(Citrullination (R))GVISTPVIR_]
- collision cross section [17]: 367.21 ± 0.24 Å²
- collision cross section [20]: 478.04 Å²

Sequence: AAINQKLIETGER [_AAINQK(Crotonyl)LIETGER_]
- collision cross section [1]: 409.27 ± 0.81 Å²

Sequence: IGNSYFKEEK [_IGNSYFK(Dimethyl (K))EEK_]
- collision cross section [24]: 384.15 ± 0.26 Å²
- collision cross section [25]: 447.26 ± 3 Å²

Sequence: LRQQLQAK [_LR(Citrullination (R))QQLQAK_]
- collision cross section [17]: 337.45 ± 0.28 Å²

Sequence: PLPVALQTRLAK [_PLPVALQTR(Methyl (R))LAK_]
- collision cross section (charge state: 2, modification: Methyl (R)): 400.79 ± 0.32 Å²
- collision cross section (charge state: 3, modification: Methyl (R)): 474 ± 2.6 Å²

Sequence: IPQEKCILQTDVK [_IPQEK(Succinyl)CILQTDVK_]
- collision cross section [3]: 432.46 ± 0.51 Å²

Sequence: GTVPDDAVEALADSLGKK [_GTVPDDAVEALADSLGK(Acetyl (K))K_]
- collision cross section [26]: 449.76 ± 3.1 Å²
- collision cross section [27]: 527.69 ± 0.69 Å²

Sequence: STGLELETPSLVPVKK [_STGLELETPSLVPVK(Butyryl)K_]
- collision cross section [16]: 438.73 ± 0.53 Å²
- collision cross section [23]: 522.48 ± 2.1 Å²

Sequence: IGAEVYHHLK [_IGAEVY(Phospho (Y))HHLK_]
- collision cross section [18]: 385.73 ± 0.77 Å²

Sequence: SKHLQEQLNELK [_SK(Butyryl)HLQEQLNELK_]
- collision cross section [16]: 422.39 ± 0.24 Å²
- collision cross section [23]: 490.06 ± 2.9 Å²

Sequence: SGFGKFER [_SGFGK(Biotin)FER_]
- collision cross section [10]: 352.97 Å²

Sequence: VFSIISSEKELK [_VFSIISSEK(GlyGly (K))ELK_]
- collision cross section [6]: 424.98 ± 0.97 Å²
- collision cross section [7]: 493.89 ± 2 Å²

Sequence: LEKTIDDLEEK [_LEK(Crotonyl)TIDDLEEK_]
- collision cross section [1]: 409.2 ± 1.1 Å²

Sequence: QQETAAAETETR [_QQETAAAETET(HexNAc (ST))R_]
- collision cross section [22]: 397.03 ± 0.67 Å²
- collision cross section [15]: 483.44 ± 0.18 Å²

Sequence: SGFGKFER [_SGFGK(GlyGly (K))FER_]
- collision cross section [6]: 340.43 ± 0.74 Å²

Sequence: VDIDAPDVSIEGPDAKLK [_VDIDAPDVSIEGPDAK(Formyl)LK_]
- collision cross section [8]: 461.12 Å²

Sequence: AGQKLIDVNHYAK [_AGQK(hydroxyisobutyryl)LIDVNHYAK_]
- collision cross section [19]: 436.67 ± 0.29 Å²
- collision cross section [5]: 483.82 ± 2.8 Å²

Sequence: VTLEVGKVIQQGR [_VTLEVGK(Malonyl)VIQQGR_]
- collision cross section [12]: 413.16 ± 1.2 Å²
- collision cross section [13]: 480.87 ± 1.8 Å²

Sequence: TFGKAAGPSLSHTSGGTQSK [_TFGK(GlyGly (K))AAGPSLSHTSGGTQSK_]
- collision cross section [7]: 526.57 ± 0.59 Å²

Sequence: DDSFLGKLGGTLAR [_DDSFLGK(Gluratylation)LGGTLAR_]
- collision cross section (charge state: 2, modification: Glutarylation): 415.27 ± 0.59 Å²
- collision cross section (charge state: 3, modification: Glutarylation): 485.15 Å²

Sequence: IPAASAAAMNLASAR [_IPAAS(HexNAc (ST))AAAMNLASAR_]
- collision cross section [15]: 504.78 ± 1.3 Å²

Sequence: ISSNFSSIIAEKLR [_ISSNFSSIIAEK(Acetyl (K))LR_]
- collision cross section [26]: 428.83 ± 3 Å²
- collision cross section [27]: 506.75 Å²

Sequence: DYNVTANSK [_DY(Nitro (Y))NVTANSK_]
- collision cross section [11]: 334.81 ± 0.16 Å²

Sequence: ASEALLKQLK [_ASEALLK(Dimethyl (K))QLK_]
- collision cross section [24]: 366.02 ± 0.28 Å²
- collision cross section [25]: 439.24 ± 2.8 Å²

Sequence: AYPLADAHLTK [_AY(Phospho (Y))PLADAHLTK_]
- collision cross section [18]: 380.31 ± 0.063 Å²
- collision cross section (charge state: 3, modification: Phospho (Y)): 465.22 ± 1 Å²

Sequence: GEVGAGAGPGAQAGPSAKR [_GEVGAGAGPGAQAGPSAK(Crotonyl)R_]
- collision cross section [1]: 426.44 ± 0.55 Å²
- collision cross section [2]: 497.45 ± 1.2 Å²

Sequence: SYVDTGGVSR [_SY(Phospho (Y))VDTGGVSR_]
- collision cross section [18]: 347.56 ± 0.066 Å²

Sequence: IVNVSLADLR [_IVNVS(HexNAc (ST))LADLR_]
- collision cross section [22]: 388.29 ± 1.2 Å²

Sequence: DSSPTTNSKLSALQR [_DSSPTTNSK(Butyryl)LSALQR_]
- collision cross section [16]: 435.34 ± 0.76 Å²
- collision cross section [23]: 499.02 ± 1.9 Å²

Sequence: ASDTSSETVFGKR [_ASDTSSETVFGK(Butyryl)R_]
- collision cross section [16]: 403.53 ± 0.74 Å²
- collision cross section [23]: 479.86 ± 1.9 Å²

Sequence: LQEKVESAQSEQK [_LQEK(Biotin)VESAQSEQK_]
- collision cross section [10]: 433.03 ± 0.23 Å²
- collision cross section [21]: 526.98 ± 0.34 Å²

Sequence: IINEPTAAAIAYGLDKK [_IINEPTAAAIAYGLDK(Butyryl)K_]
- collision cross section [16]: 465.29 ± 0.5 Å²
- collision cross section [23]: 559.62 ± 0.45 Å²

Sequence: LQLEIDQKK [_LQLEIDQK(Dimethyl (K))K_]
- collision cross section [24]: 364.14 ± 0.52 Å²
- collision cross section [25]: 427.16 ± 2.1 Å²

Sequence: STGLELETPSLVPVKK [_STGLELETPSLVPVK(Succinyl)K_]
- collision cross section [3]: 449.72 ± 9.5 Å²
- collision cross section [4]: 499.21 ± 23 Å²

Sequence: DDSFLGKLGGTLAR [_DDSFLGK(Dimethyl (K))LGGTLAR_]
- collision cross section [24]: 416.68 ± 0.75 Å²
- collision cross section [25]: 473.5 ± 1.2 Å²
